B1: Ribosomal protein S6 kinase alpha-1 (Homo sapiens), Q15418 (parent)
chain: MPLAQLKEPWPLMELVPLDPENGQTSGEEAGLQPSKDEGVLKEISITHHVKAGSEKADPSHFELLKVLGQGSFGKVFLVRKVTRPDSGHLYAMKVLKKATLKVRDRVRTKMERDILADVNHPFVVKLHYAFQTEGKLYLILDFLRGGDLFTRLSKEVMFTEEDVKFYLAELALGLDHLHSLGIIYRDLKPENILLDEEGHIKLTDFGLSKEAIDHEKKAYSFCGTVEYMAPEVVNRQGHSHSADWWSYGVLMFEMLTGSLPFQGKDRKETMTLILKAKLGMPQFLSTEAQSLLRALFKRNPANRLGSGPDGAEEIKRHVFYSTIDWNKLYRREIKPPFKPAVAQPDDTFYFDTEFTSRTPKDSPGIPPSAGAHQLFRGFSFVATGLMEDDGKPRAPQAPLHSVVQQLHGKNLVFSDGYVVKETIGVGSYSECKRCVHKATNMEYAVKVIDKSKRDPSEEIEILLRYGQHPNIITLKDVYDDGKHVYLVTELMRGGELLDKILRQKFFSEREASFVLHTIGKTVEYLHSQGVVHRDLKPSNILYVDESGNPECLRICDFGFAKQLRAENGLLMTPCYTANFVAPEVLKRQGYDEGCDIWSLGILLYTMLAGYTPFANGPSDTPEEILTRIGSGKFTLSGGNWNTVSETAKDLVSKMLHVDPHQRLTAKQVLQHPWVTQKDKLPQSQLSHQDLQLVKGAMAATYSALNSSKPTPQLKPIESSILAQRRVRKLPSTTL
B2: FERM and PDZ domain-containing protein 1 (Homo sapiens), Q5SYB0 (parent)
chain: MEELETSLFQTRKAHRIEQMVARWLRRSRDSSARAKVAAADGPARNPTQTLIPVRHTVKIDKDTLLQDYGFHISESLPLTVVAVTAGGSAHGKLFPGDQILQMNNEPAEDLSWERAVDILREAEDSLSITVVRCTSGVPKSSFLTEEKRARLKTNPVKVHFAEEVLISGHSQGNSLLCMPNVLKLYLENGQTKAFKFEANTTVKDIILTVKEKLSIRSIEYFALALEEQYSISRLHLLHEEELIQQVVEREESHDYRCLFRVCFVPKDPLDLLKEDPVAFEYLYLQSCSDVLQERFAVEMKCSSALRLAALHIQERIYACAQPQKISLKYIEKDWGIENFISPTLLRNMKGKDIKKAISFHMKRNQNLLEPRQKQLISAAQLRLNYLQILGELKTYGGRIFNATLMLQDRESYIALLVGAKYGISQVINSKLNIMSTLAEFANISRVELTEESEKVSVVKVYLQDVKVLTLLLESNSAKDLACLIAGYYRLLVDPVTSIFLWPGNKQQAHRVSAEEGYESRACSDSEESSEVDCVLEPLSDRRLVKLAPCRSLIKEEQPPGNSPTPEVARRGPSTCGASSTTDSAESEASDSANTESRGYRTSGSSESMDALEEDDLDTCSSSRSTFFHFGSPGLAESIDSDSQEERSGIETSGFLCLLDLAQRANPQCQKTEFSESAALETFGWAPELSTVRLDPRLYEGSHADYYSLCSSVSPASYLSDSSESTASRQGGAPPAWGQQGWTEAQPSSMLEPLALHPPLAFEDGSSDEEYYDAADKLTPPGPPSGPRDVSTAEPSATSLQNKASTSSPENSLPCGPDGRQPSRRGGVKKYAKTLRKRRSFLQTDYTSQVSFPLVPSASLESVDDVCYYDREPYLALGAPSPTVSSLQDMQGEPGLLETKALGLLAPLRETKSTNPASRVMEMEPETMETKSVIDSRVSSISAIRFRIDPNNKENSGVVPAASSSASTPHCSNPGSSGPDTAQARPSQILPLSQDLDGIAPKEPTIEHGDSSFSLSSGDPNPDRACLASNPGLNNVSQGDTLELQLEPHVQLEMGLESFCTNHIQETAPKYTEPLLSPRDEPRSDECGINPGEKIASIPTKEEPQGQLSLERDREVTNKNGTNVFQEESRKDSGDSPGDVSNNVSQTLDISSPAGKIVTSLSLDAPVTGTEQIPPHPPRDPQGQSREPPGQGCQAQEQKLFVELDLDPDFFLGKQTVSPAVPPEGIKAEAPNHVTGQDIAPRDSPEWVCFNPEPSLPEPLPCPQEDPHLETSNHCLLSEGKSDSSSICLSAEKSFLCFAPESHPEVSASLRVATSLGFAGMNEMVAPRIGMDQCSCQFSYATCFRGPQPETEEEDRDLEAHPMAPLTSPPSAGSPVVLPWRPARAHSCTTAPLSRKSHIWPEYCSRALRQLKATPASTPEGFIQLMESLLELQDILETSWGVGNKHPPEKCTWHFTESRSRLCMGSQKLLSSCRHVIRMDQSPEEMQGAVRDTFQHLVQLAGLCFQFTDCSRCSARHREAAGNLRDVVYTYHQFIEAAKSTCERGYHDLSVKLLARQCTALTAAVFCLTQKFRASTAL
B3: Colorectal mutant cancer protein (Homo sapiens), P23508 (parent)
chain: MNSGVAMKYGNDSSAELSELHSAALASLKGDIVELNKRLQQTERERDLLEKKLAKAQCEQSHLMREHEDVQERTTLRYEERITELHSVIAELNKKIDRLQGTTIREEDEYSELRSELSQSQHEVNEDSRSMDQDQTSVSIPENQSTMVTADMDNCSDLNSELQRVLTGLENVVCGRKKSSCSLSVAEVDKHIEQLTTASEHCDLAIKTVEEIEGVLGRDLYPNLAEERSRWEKELAGLREENESLTAMLCSKEEELNRTKATMNAIREERDRLRRRVRELQTRLQSVQATGPSSPGRLTSTNRPINPSTGELSTSSSSNDIPIAKIAERVKLSKTRSESSSSDRPVLGSEISSIGVSSSVAEHLAHSLQDCSNIQEIFQTLYSHGSAISESKIREFEVETERLNSRIEHLKSQNDLLTITLEECKSNAERMSMLVGKYESNATALRLALQYSEQCIEAYELLLALAESEQSLILGQFRAAGVGSSPGDQSGDENITQMLKRAHDCRKTAENAAKALLMKLDGSCGGAFAVAGCSVQPWESLSSNSHTSTTSSTASSCDTEFTKEDEQRLKDYIQQLKNDRAAVKLTMLELESIHIDPLSYDVKPRGDSQRLDLENAVLMQELMAMKEEMAELKAQLYLLEKEKKALELKLSTREAQEQAYLVHIEHLKSEVEEQKEQRMRSLSSTSSGSKDKPGKECADAASPALSLAELRTTCSENELAAEFTNAIRREKKLKARVQELVSALERLTKSSEIRHQQSAEFVNDLKRANSNLVAAYEKAKKKHQNKLKKLESQMMAMVERHETQVRMLKQRIALLEEENSRPHTNETSL
B4: Protein FAM163B (Homo sapiens), P0C2L3 (parent)
chain: MTAGTVVITGGILATVILLCIIAVLCYCRLQYYCCKKDESEEDEEEPDFAVHSHLPPLHSNRNLVLTNGPALYPTASTSFSQKSPQARALCRSCSHCEPPTFFLQEPPEEEEDVLNGGERVLYKSVSQEDVELPPGGFGGLQALNPNRLSAMREAFARSRSISTDV

Variants of: B1
Conditions: with scrib_human SCRIB
Target sequence in this assay (Q14160 whole entry): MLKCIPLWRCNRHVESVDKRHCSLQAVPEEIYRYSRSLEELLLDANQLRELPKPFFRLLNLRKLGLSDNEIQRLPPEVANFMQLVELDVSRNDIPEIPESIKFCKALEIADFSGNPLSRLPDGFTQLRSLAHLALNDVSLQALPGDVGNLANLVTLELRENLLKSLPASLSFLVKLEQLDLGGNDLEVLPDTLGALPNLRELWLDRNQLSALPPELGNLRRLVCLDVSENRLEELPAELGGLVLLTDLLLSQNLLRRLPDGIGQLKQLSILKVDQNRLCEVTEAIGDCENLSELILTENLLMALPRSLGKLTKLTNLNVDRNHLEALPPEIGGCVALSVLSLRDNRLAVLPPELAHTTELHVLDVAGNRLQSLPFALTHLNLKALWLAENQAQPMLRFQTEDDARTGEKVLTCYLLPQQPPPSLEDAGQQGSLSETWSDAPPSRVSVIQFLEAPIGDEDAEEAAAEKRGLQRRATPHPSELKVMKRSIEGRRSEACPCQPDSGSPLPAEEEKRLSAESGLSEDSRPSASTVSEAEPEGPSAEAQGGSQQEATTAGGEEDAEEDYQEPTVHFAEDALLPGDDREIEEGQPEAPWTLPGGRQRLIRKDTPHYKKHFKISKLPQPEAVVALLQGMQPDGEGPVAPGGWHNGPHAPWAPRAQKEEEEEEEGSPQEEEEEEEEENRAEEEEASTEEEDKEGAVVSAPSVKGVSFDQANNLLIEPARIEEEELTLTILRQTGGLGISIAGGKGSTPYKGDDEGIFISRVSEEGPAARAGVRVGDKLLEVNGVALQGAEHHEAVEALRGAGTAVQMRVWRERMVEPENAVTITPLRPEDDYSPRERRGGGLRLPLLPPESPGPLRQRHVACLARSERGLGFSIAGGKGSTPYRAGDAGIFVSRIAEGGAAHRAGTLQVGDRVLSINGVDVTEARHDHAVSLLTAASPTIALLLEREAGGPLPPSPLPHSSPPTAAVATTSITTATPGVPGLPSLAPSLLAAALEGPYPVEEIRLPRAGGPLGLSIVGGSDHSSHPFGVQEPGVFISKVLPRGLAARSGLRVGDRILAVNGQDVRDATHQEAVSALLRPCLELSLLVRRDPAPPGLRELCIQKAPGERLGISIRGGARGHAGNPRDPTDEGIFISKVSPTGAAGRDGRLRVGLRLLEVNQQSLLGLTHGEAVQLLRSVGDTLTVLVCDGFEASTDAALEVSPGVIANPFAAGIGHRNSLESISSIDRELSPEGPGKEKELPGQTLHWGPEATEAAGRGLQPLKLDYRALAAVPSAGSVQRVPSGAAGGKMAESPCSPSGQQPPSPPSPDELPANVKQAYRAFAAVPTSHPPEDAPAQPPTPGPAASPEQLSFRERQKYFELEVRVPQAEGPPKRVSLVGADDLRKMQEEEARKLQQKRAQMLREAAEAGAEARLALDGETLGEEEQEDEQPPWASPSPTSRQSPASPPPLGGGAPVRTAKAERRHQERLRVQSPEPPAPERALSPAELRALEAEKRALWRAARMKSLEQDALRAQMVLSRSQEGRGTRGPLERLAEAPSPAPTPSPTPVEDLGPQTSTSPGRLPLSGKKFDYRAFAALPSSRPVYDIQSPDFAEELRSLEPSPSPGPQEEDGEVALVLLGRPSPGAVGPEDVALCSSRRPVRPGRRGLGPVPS

Variant | effect of a mutation on the interaction
S732E;T734E | increasing interaction strength
S732E | increasing interaction strength

Variants of: B2
Conditions: with scrib_human SCRIB
Target sequence in this assay (Q14160 whole entry): as above

Variant | effect of a mutation on the interaction
S1575E | increasing interaction strength

Variants of: B3
Conditions: with scrib_human SCRIB
Target sequence in this assay (Q14160 whole entry): as above

Variant | effect of a mutation on the interaction
S828E | increasing interaction strength

Variants of: B3
Conditions: with shan1_human SHANK1, Q9Y566
Sequence of shan1_human SHANK1, Q9Y566 (Q9Y566 whole entry): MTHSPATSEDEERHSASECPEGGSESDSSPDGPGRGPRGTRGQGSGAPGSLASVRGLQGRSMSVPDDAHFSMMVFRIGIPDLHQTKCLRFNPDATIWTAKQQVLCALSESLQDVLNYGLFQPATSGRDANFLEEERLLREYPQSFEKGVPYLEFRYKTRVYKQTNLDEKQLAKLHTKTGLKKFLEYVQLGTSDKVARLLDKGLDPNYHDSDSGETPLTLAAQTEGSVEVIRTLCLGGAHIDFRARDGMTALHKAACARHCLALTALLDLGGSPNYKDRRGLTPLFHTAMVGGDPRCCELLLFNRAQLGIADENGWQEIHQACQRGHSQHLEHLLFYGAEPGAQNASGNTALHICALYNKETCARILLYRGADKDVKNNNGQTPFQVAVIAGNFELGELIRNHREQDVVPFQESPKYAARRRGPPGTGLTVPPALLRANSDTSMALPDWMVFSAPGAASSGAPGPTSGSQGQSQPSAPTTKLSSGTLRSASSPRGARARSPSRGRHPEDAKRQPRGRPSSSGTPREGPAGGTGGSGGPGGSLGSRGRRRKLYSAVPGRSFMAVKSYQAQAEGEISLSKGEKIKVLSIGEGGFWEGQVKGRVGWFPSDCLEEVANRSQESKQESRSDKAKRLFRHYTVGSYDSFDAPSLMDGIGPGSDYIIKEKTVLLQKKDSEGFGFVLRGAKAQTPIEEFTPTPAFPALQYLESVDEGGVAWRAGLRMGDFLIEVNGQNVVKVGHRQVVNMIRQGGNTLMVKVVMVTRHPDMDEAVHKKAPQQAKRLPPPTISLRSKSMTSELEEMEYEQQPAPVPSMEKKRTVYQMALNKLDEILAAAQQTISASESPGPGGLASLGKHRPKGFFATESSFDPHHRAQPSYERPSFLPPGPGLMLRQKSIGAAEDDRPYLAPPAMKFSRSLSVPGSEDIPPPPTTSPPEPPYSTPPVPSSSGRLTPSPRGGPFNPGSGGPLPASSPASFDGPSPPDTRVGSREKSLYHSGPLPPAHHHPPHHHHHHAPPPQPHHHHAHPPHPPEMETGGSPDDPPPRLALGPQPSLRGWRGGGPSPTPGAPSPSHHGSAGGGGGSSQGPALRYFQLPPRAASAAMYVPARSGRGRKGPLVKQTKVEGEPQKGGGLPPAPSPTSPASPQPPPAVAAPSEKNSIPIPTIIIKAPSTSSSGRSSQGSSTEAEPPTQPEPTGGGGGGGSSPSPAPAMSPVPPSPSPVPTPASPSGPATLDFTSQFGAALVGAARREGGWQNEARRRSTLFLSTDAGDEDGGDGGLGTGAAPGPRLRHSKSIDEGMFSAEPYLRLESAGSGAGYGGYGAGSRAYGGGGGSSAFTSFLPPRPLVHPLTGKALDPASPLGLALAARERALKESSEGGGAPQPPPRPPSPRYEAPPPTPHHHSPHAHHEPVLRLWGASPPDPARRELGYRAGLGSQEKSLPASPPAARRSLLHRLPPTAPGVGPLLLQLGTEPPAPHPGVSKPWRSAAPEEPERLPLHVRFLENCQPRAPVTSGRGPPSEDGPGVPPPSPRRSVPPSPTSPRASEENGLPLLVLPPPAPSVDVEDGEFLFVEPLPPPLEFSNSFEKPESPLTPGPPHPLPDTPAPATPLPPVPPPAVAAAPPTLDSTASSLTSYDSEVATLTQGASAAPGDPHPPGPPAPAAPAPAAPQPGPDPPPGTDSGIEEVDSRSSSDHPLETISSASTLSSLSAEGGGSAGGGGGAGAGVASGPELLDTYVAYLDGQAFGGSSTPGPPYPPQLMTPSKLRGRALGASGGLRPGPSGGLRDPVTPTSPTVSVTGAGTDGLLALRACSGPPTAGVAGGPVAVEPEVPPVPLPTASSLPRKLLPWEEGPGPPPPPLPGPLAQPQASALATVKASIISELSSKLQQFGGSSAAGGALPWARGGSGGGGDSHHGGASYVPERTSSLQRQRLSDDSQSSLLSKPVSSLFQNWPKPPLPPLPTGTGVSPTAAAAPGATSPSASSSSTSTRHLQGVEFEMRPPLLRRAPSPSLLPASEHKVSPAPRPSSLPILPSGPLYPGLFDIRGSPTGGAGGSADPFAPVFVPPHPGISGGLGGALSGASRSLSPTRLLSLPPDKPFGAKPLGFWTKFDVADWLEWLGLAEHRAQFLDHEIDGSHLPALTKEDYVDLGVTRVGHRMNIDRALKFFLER

Variant | effect of a mutation on the interaction
S828E | decreasing interaction strength

Variants of: B3
Conditions: with dlg1_human DLG1, Q12959
Target sequence in this assay (Q12959 whole entry, looked up): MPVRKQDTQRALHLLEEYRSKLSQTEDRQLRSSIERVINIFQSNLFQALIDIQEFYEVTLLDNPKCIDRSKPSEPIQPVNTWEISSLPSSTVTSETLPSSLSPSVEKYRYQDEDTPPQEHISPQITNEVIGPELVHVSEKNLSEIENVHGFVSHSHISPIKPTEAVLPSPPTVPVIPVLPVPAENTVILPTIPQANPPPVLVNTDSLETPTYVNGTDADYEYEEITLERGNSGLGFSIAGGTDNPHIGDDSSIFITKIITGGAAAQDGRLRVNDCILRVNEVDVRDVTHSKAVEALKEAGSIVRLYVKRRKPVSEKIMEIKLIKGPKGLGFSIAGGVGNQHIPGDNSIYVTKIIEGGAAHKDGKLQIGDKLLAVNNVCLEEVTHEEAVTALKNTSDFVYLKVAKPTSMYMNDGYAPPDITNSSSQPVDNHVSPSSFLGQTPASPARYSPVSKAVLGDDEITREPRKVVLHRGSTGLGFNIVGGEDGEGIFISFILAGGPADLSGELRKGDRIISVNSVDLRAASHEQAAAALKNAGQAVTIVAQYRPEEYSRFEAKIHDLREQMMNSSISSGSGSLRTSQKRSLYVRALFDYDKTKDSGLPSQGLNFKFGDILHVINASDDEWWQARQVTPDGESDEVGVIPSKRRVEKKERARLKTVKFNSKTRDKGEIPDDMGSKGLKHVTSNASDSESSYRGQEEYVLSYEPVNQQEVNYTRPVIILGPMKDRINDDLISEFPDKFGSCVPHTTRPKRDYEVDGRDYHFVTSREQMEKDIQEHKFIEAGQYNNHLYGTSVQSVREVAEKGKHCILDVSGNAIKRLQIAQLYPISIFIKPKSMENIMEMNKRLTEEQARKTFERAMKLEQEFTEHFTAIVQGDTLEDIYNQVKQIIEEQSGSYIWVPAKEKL

Variant | effect of a mutation on the interaction
S828E | decreasing interaction strength

Variants of: B4
Conditions: with scrib_human SCRIB
Target sequence in this assay (Q14160 whole entry): as the sequence (Q14160 whole entry) above

Variant | effect of a mutation on the interaction
MTAGTVVITGGILATVILLCIIAVLCYCRLQYYCCKKDESEEDEEEPDFAVHSHLPPLHSNRNLVLTNGPALYPTASTSFSQKSPQARALCRSCSHCEPPTFFLQEPPEEEEDVLNGGERVLYKSVSQEDVELPPGGFGGLQALNPNRLSAMREAFARSRSISEDV | disrupting interaction strength

Variants of: B4
Conditions: with dlg1_human DLG1, Q12959
Target sequence in this assay (Q12959 whole entry, looked up): as the sequence (Q12959 whole entry, looked up) above

Variant | effect of a mutation on the interaction
MTAGTVVITGGILATVILLCIIAVLCYCRLQYYCCKKDESEEDEEEPDFAVHSHLPPLHSNRNLVLTNGPALYPTASTSFSQKSPQARALCRSCSHCEPPTFFLQEPPEEEEDVLNGGERVLYKSVSQEDVELPPGGFGGLQALNPNRLSAMREAFARSRSISEDV | disrupting interaction strength

Variants of: B4
Conditions: with scrib_human SCRIB
Remark: another data set of the same source
Target sequence in this assay (Q14160 whole entry): as the sequence (Q14160 whole entry) above

Variant | effect of a mutation on the interaction
MTAGTVVITGGILATVILLCIIAVLCYCRLQYYCCKKDESEEDEEEPDFAVHSHLPPLHSNRNLVLTNGPALYPTASTSFSQKSPQARALCRSCSHCEPPTFFLQEPPEEEEDVLNGGERVLYKSVSQEDVELPPGGFGGLQALNPNRLSAMREAFARSRSIETDV | with no effect

— IntAct's records for PubMed 30126976
